To fix the notation:
B1: α1s II–III loop C region peptide (residues 720–765) [not stated] / DHPR β1a subunit, full length [mouse] (parent complex)
chain 1: LKVDEFESNVNEVKDPYPSADFPGDDEEDEPEIPVSPRPRPLAELQ
chain 2: not shown

Variants of B1 are the subject of the assay. Description: intrinsic fluorescence binding (fluorescence quenching at 340 nm); read at the last titration point, 9 µM peptide; parent: 0.66; read off a plot.
Turning to chain 1 P16A, chain 1 P18A, chain 1 P23A, chain 1 P31A, chain 1 P34A, chain 1 P37A, chain 1 P39A, chain 1 P41A, the response is about 0.93.
